Results taken from publication PMC9482650, “Quantitative fragmentomics allow affinity mapping of interactomes” (Nature Communications, 2022).

T1: PDZD2_2, O15018
T1 sequence (O15018 329-429, limits assumed, looked up): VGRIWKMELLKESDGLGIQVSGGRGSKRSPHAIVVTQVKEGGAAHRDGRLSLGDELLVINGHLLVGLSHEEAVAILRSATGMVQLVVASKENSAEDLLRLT

T2: DVL3, Q92997
T2 sequence (Q92997 244-331, limits assumed, looked up): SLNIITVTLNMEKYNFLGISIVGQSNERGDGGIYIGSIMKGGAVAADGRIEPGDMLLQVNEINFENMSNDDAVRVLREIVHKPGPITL

T3: APBA3_1, O96018
T3 sequence (O96018 389-490, limits assumed, looked up): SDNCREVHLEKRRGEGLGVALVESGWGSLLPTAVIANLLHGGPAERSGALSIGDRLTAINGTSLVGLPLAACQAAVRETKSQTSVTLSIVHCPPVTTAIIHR

T4: MPP7, Q5T2T1
T4 sequence (Q5T2T1 134-230, limits assumed, looked up): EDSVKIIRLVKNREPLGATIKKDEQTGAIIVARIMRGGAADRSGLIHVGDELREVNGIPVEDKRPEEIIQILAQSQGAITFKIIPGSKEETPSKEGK

T5: MPP6, Q9NZW5
T5 sequence (Q9NZW5 125-219, limits assumed, looked up): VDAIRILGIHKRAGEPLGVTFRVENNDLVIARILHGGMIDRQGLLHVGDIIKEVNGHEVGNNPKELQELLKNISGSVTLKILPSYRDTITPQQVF

T6: APBA2_1, Q99767
T6 sequence (Q99767 563-664, limits assumed, looked up): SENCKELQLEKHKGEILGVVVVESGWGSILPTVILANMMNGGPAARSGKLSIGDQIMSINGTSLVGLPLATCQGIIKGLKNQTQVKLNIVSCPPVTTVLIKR

T7: DLG3_1, Q92796
T7 sequence (Q92796 125-227, limits assumed, looked up): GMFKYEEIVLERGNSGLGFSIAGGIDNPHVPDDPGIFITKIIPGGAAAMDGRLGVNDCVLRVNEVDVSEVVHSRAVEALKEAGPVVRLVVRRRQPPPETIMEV

T8: LRRC7, Q96NW7
T8 sequence (Q96NW7 1440-1537, limits assumed, looked up): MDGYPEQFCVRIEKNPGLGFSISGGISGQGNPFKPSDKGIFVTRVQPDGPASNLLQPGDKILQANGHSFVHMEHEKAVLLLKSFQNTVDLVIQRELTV

T9: PTPN13_1, Q12923
T9 sequence (Q12923 1088-1188, limits assumed, looked up): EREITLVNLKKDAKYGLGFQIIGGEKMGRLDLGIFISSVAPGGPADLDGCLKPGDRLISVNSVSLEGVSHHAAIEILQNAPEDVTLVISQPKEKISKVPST

T10: ARHGEF11, O15085
T10 sequence (O15085 42-136, limits assumed, looked up): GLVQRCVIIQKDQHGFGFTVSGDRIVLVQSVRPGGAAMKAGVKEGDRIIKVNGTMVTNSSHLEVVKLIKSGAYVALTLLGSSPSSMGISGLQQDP

T11: SNTB1, Q13884
T11 sequence (Q13884 107-205, limits assumed, looked up): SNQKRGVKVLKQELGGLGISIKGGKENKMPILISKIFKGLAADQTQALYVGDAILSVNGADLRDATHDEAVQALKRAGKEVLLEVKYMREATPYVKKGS

T12: SNTA1, Q13424
T12 sequence (Q13424 82-180, limits assumed, looked up): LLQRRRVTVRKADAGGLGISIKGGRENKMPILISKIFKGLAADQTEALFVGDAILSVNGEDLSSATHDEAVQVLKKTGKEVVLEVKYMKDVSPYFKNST

T13: RAPGEF6, Q8TEU7
T13 sequence (Q8TEU7 525-625, limits assumed, looked up): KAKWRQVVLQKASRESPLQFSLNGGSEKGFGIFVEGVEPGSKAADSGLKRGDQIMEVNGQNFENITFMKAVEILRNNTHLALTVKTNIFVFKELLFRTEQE


target: T1, PDZD2_2, O15018; assay: holdup assay; design: key: below the threshold = too weak to quantify, mostly under pKd 3.1 to 4; conditions: plain residues with an end cap or a label only (N-terminal biotin on a linker: ttds)

Binder | pKd
SKPTRRETEV [HPV35-E6, P27228] | 3.78
PRVKPQRSKV [PPP1R13L, Q8WUF5] | 4.01

target: T2, DVL3, Q92997; assay: holdup assay; design: key: below the threshold = too weak to quantify, mostly under pKd 3.1 to 4; conditions: plain residues with an end cap or a label only (N-terminal biotin on a linker: ttds)

Binder | pKd
SKPTRRETEV [HPV35-E6, P27228] | below the threshold
PRVKPQRSKV [PPP1R13L, Q8WUF5] | below the threshold

target: T3, APBA3_1, O96018; assay: holdup assay; design: key: below the threshold = too weak to quantify, mostly under pKd 3.1 to 4; conditions: plain residues with an end cap or a label only (N-terminal biotin on a linker: ttds)

Binder | pKd
SKPTRRETEV [HPV35-E6, P27228] | below the threshold
PRVKPQRSKV [PPP1R13L, Q8WUF5] | below the threshold

target: T4, MPP7, Q5T2T1; assay: holdup assay; design: key: below the threshold = too weak to quantify, mostly under pKd 3.1 to 4; conditions: plain residues with an end cap or a label only (N-terminal biotin on a linker: ttds)

Binder | pKd
SKPTRRETEV [HPV35-E6, P27228] | below the threshold
PRVKPQRSKV [PPP1R13L, Q8WUF5] | below the threshold

target: T5, MPP6, Q9NZW5; assay: holdup assay; design: key: below the threshold = too weak to quantify, mostly under pKd 3.1 to 4; conditions: plain residues with an end cap or a label only (N-terminal biotin on a linker: ttds)

Binder | pKd
SKPTRRETEV [HPV35-E6, P27228] | below the threshold
PRVKPQRSKV [PPP1R13L, Q8WUF5] | below the threshold

target: T6, APBA2_1, Q99767; assay: holdup assay; design: key: below the threshold = too weak to quantify, mostly under pKd 3.1 to 4; conditions: plain residues with an end cap or a label only (N-terminal biotin on a linker: ttds)

Binder | pKd
SKPTRRETEV [HPV35-E6, P27228] | below the threshold
PRVKPQRSKV [PPP1R13L, Q8WUF5] | below the threshold

target: FRMPD2_1, Q68DX3; assay: holdup assay; design: key: below the threshold = too weak to quantify, mostly under pKd 3.1 to 4; conditions: plain residues with an end cap or a label only (N-terminal biotin on a linker: ttds)
Sequence (Q68DX3 770-861): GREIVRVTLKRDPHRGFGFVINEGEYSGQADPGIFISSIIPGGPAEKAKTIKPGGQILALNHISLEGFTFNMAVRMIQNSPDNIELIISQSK

Binder | pKd
SKPTRRETEV [HPV35-E6, P27228] | 3.49
PRVKPQRSKV [PPP1R13L, Q8WUF5] | below the threshold

target: SNX27, Q96L92; assay: holdup assay; design: key: below the threshold = too weak to quantify, mostly under pKd 3.1 to 4; conditions: plain residues with an end cap or a label only (N-terminal biotin on a linker: ttds)

Binder | pKd
SKPTRRETEV [HPV35-E6, P27228] | 4.66
PRVKPQRSKV [PPP1R13L, Q8WUF5] | below the threshold

target: T7, DLG3_1, Q92796; assay: holdup assay; design: key: below the threshold = too weak to quantify, mostly under pKd 3.1 to 4; conditions: plain residues with an end cap or a label only (N-terminal biotin on a linker: ttds)

Binder | pKd
SKPTRRETEV [HPV35-E6, P27228] | 4.45
PRVKPQRSKV [PPP1R13L, Q8WUF5] | below the threshold

target: DLG2_3, Q15700; assay: holdup assay; design: key: below the threshold = too weak to quantify, mostly under pKd 3.1 to 4; conditions: plain residues with an end cap or a label only (N-terminal biotin on a linker: ttds)

Binder | pKd
SKPTRRETEV [HPV35-E6, P27228] | 5.31
PRVKPQRSKV [PPP1R13L, Q8WUF5] | below the threshold

target: T8, LRRC7, Q96NW7; assay: holdup assay; design: key: below the threshold = too weak to quantify, mostly under pKd 3.1 to 4; conditions: plain residues with an end cap or a label only (N-terminal biotin on a linker: ttds)

Binder | pKd
SKPTRRETEV [HPV35-E6, P27228] | 3.59
PRVKPQRSKV [PPP1R13L, Q8WUF5] | below the threshold

target: HTRA2, O43464; assay: holdup assay; design: key: below the threshold = too weak to quantify, mostly under pKd 3.1 to 4; conditions: plain residues with an end cap or a label only (N-terminal biotin on a linker: ttds)
Sequence (O43464 355-458): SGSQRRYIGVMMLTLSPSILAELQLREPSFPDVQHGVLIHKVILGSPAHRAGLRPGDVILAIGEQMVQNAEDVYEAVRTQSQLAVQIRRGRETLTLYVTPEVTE

Binder | pKd
SKPTRRETEV [HPV35-E6, P27228] | below the threshold
PRVKPQRSKV [PPP1R13L, Q8WUF5] | below the threshold

target: T9, PTPN13_1, Q12923; assay: holdup assay; design: key: below the threshold = too weak to quantify, mostly under pKd 3.1 to 4; conditions: plain residues with an end cap or a label only (N-terminal biotin on a linker: ttds)

Binder | pKd
SKPTRRETEV [HPV35-E6, P27228] | below the threshold
PRVKPQRSKV [PPP1R13L, Q8WUF5] | below the threshold

target: T10, ARHGEF11, O15085; assay: holdup assay; design: key: below the threshold = too weak to quantify, mostly under pKd 3.1 to 4; conditions: plain residues with an end cap or a label only (N-terminal biotin on a linker: ttds)

Binder | pKd
SKPTRRETEV [HPV35-E6, P27228] | 4.11
PRVKPQRSKV [PPP1R13L, Q8WUF5] | 3.64

target: GRIP2_6, Q9C0E4; assay: holdup assay; design: key: below the threshold = too weak to quantify, mostly under pKd 3.1 to 4; conditions: plain residues with an end cap or a label only (N-terminal biotin on a linker: ttds)
Sequence (Q9C0E4 648-740): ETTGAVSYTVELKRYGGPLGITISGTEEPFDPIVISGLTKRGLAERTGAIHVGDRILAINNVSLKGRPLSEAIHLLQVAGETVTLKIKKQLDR

Binder | pKd
SKPTRRETEV [HPV35-E6, P27228] | below the threshold
PRVKPQRSKV [PPP1R13L, Q8WUF5] | below the threshold

target: FRMPD2_3, Q68DX3; assay: holdup assay; design: key: below the threshold = too weak to quantify, mostly under pKd 3.1 to 4; conditions: plain residues with an end cap or a label only (N-terminal biotin on a linker: ttds)
Sequence (Q68DX3 1073-1166): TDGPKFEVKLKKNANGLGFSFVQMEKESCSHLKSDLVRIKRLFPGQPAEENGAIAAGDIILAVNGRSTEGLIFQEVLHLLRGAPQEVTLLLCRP

Binder | pKd
SKPTRRETEV [HPV35-E6, P27228] | below the threshold
PRVKPQRSKV [PPP1R13L, Q8WUF5] | below the threshold

target: T11, SNTB1, Q13884; assay: holdup assay; design: key: below the threshold = too weak to quantify, mostly under pKd 3.1 to 4; conditions: plain residues with an end cap or a label only (N-terminal biotin on a linker: ttds)

Binder | pKd
SKPTRRETEV [HPV35-E6, P27228] | 4.68
PRVKPQRSKV [PPP1R13L, Q8WUF5] | 3.65

target: T12, SNTA1, Q13424; assay: holdup assay; design: key: below the threshold = too weak to quantify, mostly under pKd 3.1 to 4; conditions: plain residues with an end cap or a label only (N-terminal biotin on a linker: ttds)

Binder | pKd
SKPTRRETEV [HPV35-E6, P27228] | 4.85
PRVKPQRSKV [PPP1R13L, Q8WUF5] | below the threshold

target: AHNAK1, Q09666; assay: holdup assay; design: key: below the threshold = too weak to quantify, mostly under pKd 3.1 to 4; conditions: plain residues with an end cap or a label only (N-terminal biotin on a linker: ttds)
Sequence (Q09666 4-100): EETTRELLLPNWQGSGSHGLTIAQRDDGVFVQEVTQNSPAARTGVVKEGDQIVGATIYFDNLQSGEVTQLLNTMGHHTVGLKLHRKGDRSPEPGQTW

Binder | pKd
SKPTRRETEV [HPV35-E6, P27228] | below the threshold
PRVKPQRSKV [PPP1R13L, Q8WUF5] | below the threshold

target: T13, RAPGEF6, Q8TEU7; assay: holdup assay; design: key: below the threshold = too weak to quantify, mostly under pKd 3.1 to 4; conditions: plain residues with an end cap or a label only (N-terminal biotin on a linker: ttds)

Binder | pKd
SKPTRRETEV [HPV35-E6, P27228] | below the threshold
PRVKPQRSKV [PPP1R13L, Q8WUF5] | below the threshold

target: IL16_4, Q14005; assay: holdup assay; design: key: below the threshold = too weak to quantify, mostly under pKd 3.1 to 4; conditions: plain residues with an end cap or a label only (N-terminal biotin on a linker: ttds)
Sequence (Q14005 1229-1329): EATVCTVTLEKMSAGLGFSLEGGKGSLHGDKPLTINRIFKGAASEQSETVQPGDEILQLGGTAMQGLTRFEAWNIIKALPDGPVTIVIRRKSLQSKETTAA

Binder | pKd
SKPTRRETEV [HPV35-E6, P27228] | below the threshold
PRVKPQRSKV [PPP1R13L, Q8WUF5] | below the threshold

target: PARD3_3, Q8TEW0; assay: holdup assay; design: key: below the threshold = too weak to quantify, mostly under pKd 3.1 to 4; conditions: plain residues with an end cap or a label only (N-terminal biotin on a linker: ttds)
Sequence (Q8TEW0 582-685): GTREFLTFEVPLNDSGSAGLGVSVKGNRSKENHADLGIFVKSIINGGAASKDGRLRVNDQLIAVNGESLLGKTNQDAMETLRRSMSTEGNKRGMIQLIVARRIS

Binder | pKd
SKPTRRETEV [HPV35-E6, P27228] | below the threshold
PRVKPQRSKV [PPP1R13L, Q8WUF5] | below the threshold

target: DLG5_1, Q8TDM6; assay: holdup assay; design: key: below the threshold = too weak to quantify, mostly under pKd 3.1 to 4; conditions: plain residues with an end cap or a label only (N-terminal biotin on a linker: ttds)
Sequence (Q8TDM6 617-713): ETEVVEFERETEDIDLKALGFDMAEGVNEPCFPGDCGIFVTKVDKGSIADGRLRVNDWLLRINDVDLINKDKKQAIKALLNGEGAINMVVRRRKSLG

Binder | pKd
SKPTRRETEV [HPV35-E6, P27228] | below the threshold
PRVKPQRSKV [PPP1R13L, Q8WUF5] | below the threshold

target: LAP2, Q96RT1; assay: holdup assay; design: key: below the threshold = too weak to quantify, mostly under pKd 3.1 to 4; conditions: plain residues with an end cap or a label only (N-terminal biotin on a linker: ttds)
Sequence (Q96RT1 other isoform, or with tags, fused parts or gaps): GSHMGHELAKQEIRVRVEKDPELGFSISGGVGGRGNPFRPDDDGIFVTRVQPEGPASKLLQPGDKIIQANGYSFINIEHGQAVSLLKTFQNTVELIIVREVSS

Binder | pKd
SKPTRRETEV [HPV35-E6, P27228] | 3.69
PRVKPQRSKV [PPP1R13L, Q8WUF5] | below the threshold

target: MAGI2_6, Q86UL8; assay: holdup assay; design: key: below the threshold = too weak to quantify, mostly under pKd 3.1 to 4; conditions: plain residues with an end cap or a label only (N-terminal biotin on a linker: ttds)
Sequence (Q86UL8 1141-1229): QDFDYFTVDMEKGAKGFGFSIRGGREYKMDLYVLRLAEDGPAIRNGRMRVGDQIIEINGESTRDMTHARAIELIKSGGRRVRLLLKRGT

Binder | pKd
SKPTRRETEV [HPV35-E6, P27228] | 3.49
PRVKPQRSKV [PPP1R13L, Q8WUF5] | below the threshold
